Results published in patent US20240209095A1 (DEVELOPMENT CENTER FOR BIOTECHNOLOGY, published 2024).

Legend:
PDL1-hFc [1] = biological target: T1, PDL1-hFc (UniProt Q9NZQ7 19-238); test: ELISA, PDL1-hFc coated 1 µg/ml, antibody supernatant at 300 ng/ml, anti-human Kappa HRP
T1 construct: Coated at 1 µg/ml in the ELISAs of the chimeric and humanized antibodies; construct not described
Procedure: The binding activity of humanized antibodies could be efficiently compared by all combination of heavy chains and light chains using mini scale antibody expression. The concentration of antibodies in culture supernatant was determent by anti-human IgG ELISA. For PDL1 ELISA, plates were coating with PDL1-hFc 1 μg/ml and blocked by 5% milk PBS. Assay antibodies were adjusted to 300 ng/ml, 100 μl/well. Anti-PDL1 signals were measured by secondary goat anti-human Kappa HRP IgG 1:4000 and color developed by TMB substrates (KPL). Optical absorption value was measured at OD450-655 nm by Bio-Rad ELISA reader.

PDL1-hFc [2] = biological target: T1, PDL1-hFc; test: ELISA titration on PDL1-hFc 1 ug/ml, 45 nM to 2.7×10^-3 nM, one site-specific binding fit
Procedure: (§1) ELISA plates were coating with PDL1-hFc 1 ug/ml and blocked by 5% milk PBS, then add assay antibodies form 45 nM to 2.7×10⁻³ nM dilute (4× fold dilution). Assay will measured by add goat anti-human KAPPA HRP IgG 1:4000 and binding curve and KD was determined by GraphPad Prism software using One site-specific binding for none linear fit methods.

[3] = biological target: human PD-L1 expressed on cells (HCC827 cells; PD-L1 aAPC/CHO-K1 cells) (human, UniProt Q9NZQ7 19-290); test: cell-based or functional assay
PDL1-hFc [4] = biological target: T1, PDL1-hFc; test: ELISA titration on PDL1-hFc, KD compared with parental 3C3 (FIG. 10)
Procedure: as §1

T1 sequence (Q9NZQ7 19-238): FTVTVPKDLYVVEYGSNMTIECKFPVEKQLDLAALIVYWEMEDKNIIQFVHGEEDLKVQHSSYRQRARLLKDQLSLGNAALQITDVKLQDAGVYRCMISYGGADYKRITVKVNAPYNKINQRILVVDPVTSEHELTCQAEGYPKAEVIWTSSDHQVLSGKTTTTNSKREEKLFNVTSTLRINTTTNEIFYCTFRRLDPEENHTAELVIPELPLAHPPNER
human PD-L1 expressed on cells (HCC827 cells; PD-L1 aAPC/CHO-K1 cells), sequence (Q9NZQ7 19-290): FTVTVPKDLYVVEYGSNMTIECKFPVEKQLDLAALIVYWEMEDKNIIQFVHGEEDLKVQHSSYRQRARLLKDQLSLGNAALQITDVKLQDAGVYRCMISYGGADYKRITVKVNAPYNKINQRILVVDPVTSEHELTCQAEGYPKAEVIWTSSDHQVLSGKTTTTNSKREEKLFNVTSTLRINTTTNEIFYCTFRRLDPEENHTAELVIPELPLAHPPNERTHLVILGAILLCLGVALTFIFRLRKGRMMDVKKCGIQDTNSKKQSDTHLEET

Row | Binder | OD450-650 nM, 300 ng/ml PDL1 binding (PDL1-hFc [1]) | Kd (PDL1-hFc [2]) | also measured
1 | 3C3 heavy chain Hu-B1 / light chain Hu0 (antibody, V domains shown, Human IgG, kappa, from pTCAED vectors; tested as culture supernatant) VH: EVQLQESGPGLVKPSQTLSLTCTVSGYSITSDYWDWIRQPPGKGLEWMGYISYTGSTYYNPSLRSRITISRDTSKNQYSLKLSSVTAADTAVYYCARRGGWLSPFVYWGQGTLVTVSS VL: DIVMTQSPDSLAVSLGERATINCKSRQSLLFSSNQKNSLAWYQQKPGQPPKLLIYWASTRESGVPDRFSGSGSGTDFTLTISSLQAEDVAVYYCQQYYTYPFTFGQGTKLEIK | 0.539 OD | – | –
2 | 1G8 humanized antibody HuB2Hu0 (antibody, V domains shown, Human IgG, kappa, from pTCAED vectors; also called 1G8 HuB2Hu0) VH: EVQLQESGPGLVKPSQTLSLTCTVSGYSITSDYWNWIRKPPGKGLEYMGYISYTGSTYYNPSLKSRITISRDTSKNQYSLKLSSVTAADTAVYYCARRGEWLSPFAYWGQGTLVTVSS VL: not shown | – | 0.238 nM | –
3 | 1G8 humanized antibody HuHu0 (antibody, V domains shown, Human IgG, kappa, from pTCAED vectors; also called 1G8 HuHu0) VH: QVQLQESGPGLVKPSQTLSLTCTVSGYSITSDYWNWIRQPPGKGLEWIGYISYTGSTYYNPSLKSRVTISVDTSKNQFSLKLSSVTAADTAVYYCARRGEWLSPFAYWGQGTLVTVSS VL: not shown | – | 3.99 nM | –
4 | 3C3 humanized antibody HuB2Hu0 (antibody, V domains shown, Human IgG, kappa, from pTCAED vectors; also called 3C3-HuB2Hu0; 3C3 HuB2Hu0) VH: EVQLQESGPGLVKPSQTLSLTCTVSGYSITSDYWDWIRKPPGKGLEYMGYISYTGSTYYNPSLRSRITISRDTSKNQYSLKLSSVTAADTAVYYCARRGGWLSPFVYWGQGTLVTVSS VL: DIVMTQSPDSLAVSLGERATINCKSRQSLLFSSNQKNSLAWYQQKPGQPPKLLIYWASTRESGVPDRFSGSGSGTDFTLTISSLQAEDVAVYYCQQYYTYPFTFGQGTKLEIK | 1.13 OD | 0.108 nM | 3C3 humanized antibodies Blockade Reporter Assay EC50 [3]: 0.477 nM; fold affinity loss against parental mouse clone 3C3 (PDL1-hFc [4]): < 2 fold
5 | 3C3 humanized antibody HuHu0 (antibody, V domains shown, Human IgG, kappa, from pTCAED vectors; also called 3C3 heavy chain Hu / light chain Hu0) VH: QVQLQESGPGLVKPSQTLSLTCTVSGYSITSDYWDWIRQPPGKGLEWIGYISYTGSTYYNPSLRSRVTISVDTSKNQFSLKLSSVTAADTAVYYCARRGGWLSPFVYWGQGTLVTVSS VL: DIVMTQSPDSLAVSLGERATINCKSRQSLLFSSNQKNSLAWYQQKPGQPPKLLIYWASTRESGVPDRFSGSGSGTDFTLTISSLQAEDVAVYYCQQYYTYPFTFGQGTKLEIK | 0.15 OD | – | –
6 | 3C3 heavy chain Hu-B1 / light chain Hu (antibody, V domains shown, Human IgG, kappa, from pTCAED vectors; tested as culture supernatant) VH: EVQLQESGPGLVKPSQTLSLTCTVSGYSITSDYWDWIRQPPGKGLEWMGYISYTGSTYYNPSLRSRITISRDTSKNQYSLKLSSVTAADTAVYYCARRGGWLSPFVYWGQGTLVTVSS VL: DIQMTQSPSSLSASVGDRVTITCKSRQSLLFSSNQKNSLAWYQQKPGKAPKLLIYWASTRESGVPSRFSGSGSGTDFTLTISSLQPEDFATYYCQQYYTYPFTFGQGTKLEIK | 0.455 OD | – | –
7 | 1G8 humanized antibody HuB2Hu (antibody, V domains shown, Human IgG, kappa, from pTCAED vectors; also called 1G8 HuB2Hu) VH: EVQLQESGPGLVKPSQTLSLTCTVSGYSITSDYWNWIRKPPGKGLEYMGYISYTGSTYYNPSLKSRITISRDTSKNQYSLKLSSVTAADTAVYYCARRGEWLSPFAYWGQGTLVTVSS VL: DIQMTQSPSSLSASVGDRVTITCKSSQSLLYSSNQKNSLAWYQQKPGKAPKLLIYWASTRESGVPSRFSGSGSGTDFTLTISSLQPEDFATYYCQQYYTYPFTFGQGTKLEIK | – | 0.248 nM | –
8 | 1G8 humanized antibody HuHu (antibody, V domains shown, Human IgG, kappa, from pTCAED vectors; also called 1G8 HuHu) VH: QVQLQESGPGLVKPSQTLSLTCTVSGYSITSDYWNWIRQPPGKGLEWIGYISYTGSTYYNPSLKSRVTISVDTSKNQFSLKLSSVTAADTAVYYCARRGEWLSPFAYWGQGTLVTVSS VL: DIQMTQSPSSLSASVGDRVTITCKSSQSLLYSSNQKNSLAWYQQKPGKAPKLLIYWASTRESGVPSRFSGSGSGTDFTLTISSLQPEDFATYYCQQYYTYPFTFGQGTKLEIK | – | 3.24 nM | –
9 | 3C3 humanized antibody HuB2Hu (antibody, V domains shown, Human IgG, kappa, from pTCAED vectors; also called 3C3-HuB2Hu; 3C3 HuB2Hu) VH: EVQLQESGPGLVKPSQTLSLTCTVSGYSITSDYWDWIRKPPGKGLEYMGYISYTGSTYYNPSLRSRITISRDTSKNQYSLKLSSVTAADTAVYYCARRGGWLSPFVYWGQGTLVTVSS VL: DIQMTQSPSSLSASVGDRVTITCKSRQSLLFSSNQKNSLAWYQQKPGKAPKLLIYWASTRESGVPSRFSGSGSGTDFTLTISSLQPEDFATYYCQQYYTYPFTFGQGTKLEIK | 1.35 OD | 0.0936 nM | 3C3 humanized antibodies Blockade Reporter Assay EC50 [3]: 0.441 nM; fold affinity loss against parental mouse clone 3C3 (PDL1-hFc [4]): < 2 fold
10 | 3C3 heavy chain Hu-B1 / light chain Hu2 (antibody, V domains shown, Human IgG, kappa, from pTCAED vectors; tested as culture supernatant) VH: EVQLQESGPGLVKPSQTLSLTCTVSGYSITSDYWDWIRQPPGKGLEWMGYISYTGSTYYNPSLRSRITISRDTSKNQYSLKLSSVTAADTAVYYCARRGGWLSPFVYWGQGTLVTVSS VL: DIVMTQTPLSLSVTPGQPASISCKSRQSLLFSSNQKNSLAWYLQKPGQSPQLLIYWASTRESGVPDRFSGSGSGTDFTLKISRVEAEDVGVYYCQQYYTYPFTFGQGTKLEIK | 0.349 OD | – | –
11 | 1G8 humanized antibody HuB2Hu2 (antibody, V domains shown, Human IgG, kappa, from pTCAED vectors; also called 1G8 HuB2Hu2) VH: EVQLQESGPGLVKPSQTLSLTCTVSGYSITSDYWNWIRKPPGKGLEYMGYISYTGSTYYNPSLKSRITISRDTSKNQYSLKLSSVTAADTAVYYCARRGEWLSPFAYWGQGTLVTVSS VL: DIVMTQTPLSLSVTPGQPASISCKSSQSLLYSSNQKNSLAWYLQKPGQSPQLLIYWASTRESGVPDRFSGSGSGTDFTLKISRVEAEDVGVYYCQQYYTYPFTFGQGTKLEIK | – | 0.108 nM | –
12 | 1G8 humanized antibody HuHu2 (antibody, V domains shown, Human IgG, kappa, from pTCAED vectors; also called 1G8 HuHu2) VH: QVQLQESGPGLVKPSQTLSLTCTVSGYSITSDYWNWIRQPPGKGLEWIGYISYTGSTYYNPSLKSRVTISVDTSKNQFSLKLSSVTAADTAVYYCARRGEWLSPFAYWGQGTLVTVSS VL: DIVMTQTPLSLSVTPGQPASISCKSSQSLLYSSNQKNSLAWYLQKPGQSPQLLIYWASTRESGVPDRFSGSGSGTDFTLKISRVEAEDVGVYYCQQYYTYPFTFGQGTKLEIK | – | 9.68 nM | –
13 | 3C3 heavy chain M / light chain Hu (antibody, V domains shown, Human IgG, kappa, from pTCAED vectors; tested as culture supernatant) VH: EVQLQESGPGLTKPSQTLSLTCSVTGYSITSDYWDWIRKFPGNKLEYMGYISYTGSTYYNPSLRSRISITRDTSKNQYYLQLSSVTSEDSATYYCARRGGWLSPFVYWGQGTLVTVSA VL: DIQMTQSPSSLSASVGDRVTITCKSRQSLLFSSNQKNSLAWYQQKPGKAPKLLIYWASTRESGVPSRFSGSGSGTDFTLTISSLQPEDFATYYCQQYYTYPFTFGQGTKLEIK | 1.85 OD | – | –
14 | 3C3 heavy chain M / light chain Hu2 (antibody, V domains shown, Human IgG, kappa, from pTCAED vectors; tested as culture supernatant) VH: EVQLQESGPGLTKPSQTLSLTCSVTGYSITSDYWDWIRKFPGNKLEYMGYISYTGSTYYNPSLRSRISITRDTSKNQYYLQLSSVTSEDSATYYCARRGGWLSPFVYWGQGTLVTVSA VL: DIVMTQTPLSLSVTPGQPASISCKSRQSLLFSSNQKNSLAWYLQKPGQSPQLLIYWASTRESGVPDRFSGSGSGTDFTLKISRVEAEDVGVYYCQQYYTYPFTFGQGTKLEIK | 1.55 OD | – | –
15 | 3C3 heavy chain Hu-B1 / light chain M (antibody, V domains shown, Human IgG, kappa, from pTCAED vectors; tested as culture supernatant) VH: EVQLQESGPGLVKPSQTLSLTCTVSGYSITSDYWDWIRQPPGKGLEWMGYISYTGSTYYNPSLRSRITISRDTSKNQYSLKLSSVTAADTAVYYCARRGGWLSPFVYWGQGTLVTVSS VL: DTVMSQSPSSLGVSVGERVTLTCKSRQSLLFSSNQKNSLAWYQQKPGQSPKLLIYWASTRESGVPDRFTGSGSGTDFTLTISSVKSEDLAVYYCQQYYTYPFTFGAGTSLELK | 0.61 OD | – | –
16 | 3C3 heavy chain Hu / light chain M (antibody, V domains shown, Human IgG, kappa, from pTCAED vectors; tested as culture supernatant) VH: QVQLQESGPGLVKPSQTLSLTCTVSGYSITSDYWDWIRQPPGKGLEWIGYISYTGSTYYNPSLRSRVTISVDTSKNQFSLKLSSVTAADTAVYYCARRGGWLSPFVYWGQGTLVTVSS VL: DTVMSQSPSSLGVSVGERVTLTCKSRQSLLFSSNQKNSLAWYQQKPGQSPKLLIYWASTRESGVPDRFTGSGSGTDFTLTISSVKSEDLAVYYCQQYYTYPFTFGAGTSLELK | 0.25 OD | – | –
17 | 3C3 heavy chain Hu-B2 / light chain M (antibody, V domains shown, Human IgG, kappa, from pTCAED vectors; tested as culture supernatant) VH: EVQLQESGPGLVKPSQTLSLTCTVSGYSITSDYWDWIRKPPGKGLEYMGYISYTGSTYYNPSLRSRITISRDTSKNQYSLKLSSVTAADTAVYYCARRGGWLSPFVYWGQGTLVTVSS VL: DTVMSQSPSSLGVSVGERVTLTCKSRQSLLFSSNQKNSLAWYQQKPGQSPKLLIYWASTRESGVPDRFTGSGSGTDFTLTISSVKSEDLAVYYCQQYYTYPFTFGAGTSLELK | 1.2 OD | – | –
18 | mouse-human chimera 3C3 MM (antibody, V domains shown, Variable regions in human chimera antibody expression vectors pTCAED heavy and light; human IgG, kappa (detected with anti-human Kappa); also called 3C3 heavy chain M / light chain M; chimera PD-L1) VH: EVQLQESGPGLTKPSQTLSLTCSVTGYSITSDYWDWIRKFPGNKLEYMGYISYTGSTYYNPSLRSRISITRDTSKNQYYLQLSSVTSEDSATYYCARRGGWLSPFVYWGQGTLVTVSA VL: DTVMSQSPSSLGVSVGERVTLTCKSRQSLLFSSNQKNSLAWYQQKPGQSPKLLIYWASTRESGVPDRFTGSGSGTDFTLTISSVKSEDLAVYYCQQYYTYPFTFGAGTSLELK | 1.52 OD | – | –
19 | 3C3 heavy chain M / light chain Hu0 (antibody, V domains shown, Human IgG, kappa, from pTCAED vectors; tested as culture supernatant) VH: EVQLQESGPGLTKPSQTLSLTCSVTGYSITSDYWDWIRKFPGNKLEYMGYISYTGSTYYNPSLRSRISITRDTSKNQYYLQLSSVTSEDSATYYCARRGGWLSPFVYWGQGTLVTVSA VL: DIVMTQSPDSLAVSLGERATINCKSRQSLLFSSNQKNSLAWYQQKPGQPPKLLIYWASTRESGVPDRFSGSGSGTDFTLTISSLQAEDVAVYYCQQYYTYPFTFGQGTKLEIK | 1.58 OD | – | –
